Where a chain is given by its changes, count along the chain named.
T1: Human CD53-CHO (full-length human CD53 over-expressed on CHO-K1 cells) (human, UniProt P19397 1-219)
T1 construct: Tetraspanin cell-surface antigen
T1 sequence: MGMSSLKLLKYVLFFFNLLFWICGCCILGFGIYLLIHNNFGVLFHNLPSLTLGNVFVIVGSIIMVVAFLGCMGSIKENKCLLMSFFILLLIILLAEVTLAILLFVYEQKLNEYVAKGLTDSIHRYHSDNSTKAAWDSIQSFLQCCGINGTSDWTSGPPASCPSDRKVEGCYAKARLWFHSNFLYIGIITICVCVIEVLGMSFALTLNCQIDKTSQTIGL

B1: 4L19 (antibody, V domains shown)
VH: QVQLQQSGAELMKPGASVKLSCKATGYTFTGYWIEWVKQRPGHGLEWIGEISSGGYNTNYNKKFKGKATFTVDTSSNTAYMQLSSLTTEDSAIYYCTRDSNDYYFDYWGQGTTLTVSS
VL: DVVMTQTPLTLSVTIGQPASISCKSSQSLLHRNGKTHLNWLLQRPGQSPKLLIYLVSKLESGVPDRFSGSGSGTDFTLRISRVEAEDLGVYYCLQVTHFPYTFGSGTKLEIK
notes: Murine anti-human CD53 mAb purified from subcloned hybridoma; detected with anti-mouse IgG
B2: 3G02 (antibody, V domains shown)
VH: EVQLQQSVAELVRPGASVKLSCTASGFNIKNTYMHWVKQRPEQGLEWIGRIDPAIGYTEYAPKFQGKATITADTSSNTAWLQLSSLTSEDTAIYYCAGGGPYYAMDYWGRGTSVTVSS
VL: DIVMTQAAPSIPVTPGESVSISCRSSKSLLHSNGDTYLYWFLQRPGQSPQVLIYRMSNLASGVPARFSGSGSGTAFTLRISRVEAEDVGVYYCMQHLEYPFTFGAGTKLELK
notes: as for B1
B3: 4C22 (antibody, V domains shown)
VH: EVQLQQSGAELVRPGASVKLSCTASGFNIKDDFMNWVKQRPEQGLEWIGRIDPANGHTKYAPKFQDKATITADTSSNTAFLHLSSLTSEDTAVYFCARWIPPYWGQGTLVTVSA
VL: B2 VL with I11V, V19A, V51L, A65D, H96L, F101Y, A105G, L111I
notes: as for B1
B4: 4J16 (antibody, V domains shown)
VH: EVQLQQSGAELVRPGASVRLSCTASGFNIKDDFLHWVNQRPEQGLEWIGRIDPANGNTKYAPKFRDRATITADTSSNTAYLQLSSLTSEDTAVYYCVRVYGDYWGQGTTLTVSS
VL: DIVMTQAAFSNPVTLGTSASISCRSSKSLLHSNGITYLYWYLQKPGQSPQLLIYQMSNLASGVPDRFSSSGSGTDFTLRISRVEAEDVGVYYCAQNLELPLTFGAGTKLELK
notes: as for B1
B5: 4G15 (antibody, V domains shown)
VH: EVQLQQSGAELVRPGASVKLSCTTSGFNIKDDFMHWVKQRPEQGLEWIGWIDPENGNTQYASKFQGKATITADTSSNTAYLQLSSLTSEDTAVYYCTSYYEETMDYWGQGTSVTVSS
VL: B4 VL with R24S, K44R, Q55R, S69G, N96M, L99R, L101R, A105G, L111I
notes: as for B1
B6: 4K13 (antibody, V domains shown)
VH: EVQLQQSVAELVRPGASVKLSCTASGLNIKNTYMNWVKQRPEQGLEWIGRIDPANGYTKYAPKFQGKTTITAATSSNTAFLQLSSLTSGDTAIYYCTTAVVATGDYWGQGTTLTVSS
VL: B4 VL with N33D, Y41F, K44R, Q55R, S69G, N96M, L99F, L101F, A105T, L111I
notes: as for B1

target: T1, Human CD53-CHO (full-length human CD53 …); test: flow cytometry on CD53-CHO cells, anti-mouse IgG AF647 gMFI, 4-parameter fit
Method: Binding of anti-human CD53 antibodies was determined by flow cytometry for their ability to bind human CD53-CHO cells compared to parental CHO-K1 cells. All assay steps were performed in FACS buffer (phosphate buffered saline pH 7.4 supplemented with 2% fetal bovine serum). Twenty thousand cells were seeded in 384-well plates and washed twice with ice cold buffer. Cells were incubated with purified antibodies titrated 3-fold from 200 nM to 0.09 nM at 4° C. for 1 hour with gentle agitation, then washed twice with FACS buffer and incubated with anti-mouse IgG Alexa Fluor® 647 and incubated at 4° C. for 40 minutes. Cells were washed twice and resuspended in FACS buffer. Analysis was preformed on the IntelliCyt® iQue Screener and gMFI values for Alexa Fluor® 647 were generated. EC50 values were determined in GraphPad Prism8. Concentration was transformed from nM to Log 10 nM and curves were fit with a nonlinear regression of log(agonist) vs. response−Variable slope (four parameters) or Y=Bottom+(Top−Bottom)/(1+10\hat{ }((LogEC50−X)*HillSlope)). EC50 values for all anti-human CD53 antibodies can be found in Table 6, and representative binding curves can be found in FIG. 7. Binding to CD53-CHO is represented by closed symbols and binding to parental CHO-K1 cells is represented by open symbols.

EC50 [nM]	Binder
4.3	B1
~7	B2
~7	B3
1.6	B4
3.8	B5
~1	B6
